Measurements as given in publication PMC11811267 (Journal of Separation Science, 2025).

What was measured:
Type in all cases: in vitro ADME
[1] = Freeze-thaw stability in artificial plasma after storage at −80°C; details: stored at −80°C, triplicate, 2D-LC-MS/MS; for 24 h, change (%): cycle at 24 h; for 48 h, change (%): cycle at 48 h; for 72 h, change (%): cycle at 72 h
Procedure: (§1) The stability tests of all insulins were performed at two concentration levels (193 and 7752 pg/mL). One set of tests was performed with artificial plasma and the other set with artificial plasma containing 1% PIC. Each concentration level was tested in triplicate. These QC samples were quantified using an artificial plasma calibration curve without PIC, and the obtained concentrations were compared with the nominal concentrations of the low quality control (LQC) and high quality control (HQC), which were set to 100%. To evaluate the stability of insulins in artificial plasma containing 1% PIC, we considered the concentration measured at time zero as the baseline (100%). All subsequent changes in concentration were calculated relative to this initial measurement.
(§2) Short‐term stability, long‐term stability, and freeze‐thaw stability were evaluated in this study. LQC and HQC samples were stored at room temperature and in a refrigerator for 3, 6, and 24 h to assess short‐term (bench‐top) stability and at 4°C in the autosampler for 24 h to assess re‐injection stability.

[2] = Autosampler (re-injection) stability at 4°C for 24 h; details: autosampler (AS) 4°C, triplicate, 2D-LC-MS/MS
Procedure: as §1, §2

[3] = Long-term stability in artificial plasma at −80°C; details: triplicate, 2D-LC-MS/MS
Procedure: as §1, §2

[4] = Long-term stability in artificial plasma at −20°C; details: triplicate, 2D-LC-MS/MS
Procedure: as §1, §2

[5] = artificial plasma (BZ273) with 1% PIC, 193 pg/mL, % of concentration at time zero
[6] = artificial plasma (BZ273) with 1% PIC, 7752 pg/mL, % of concentration at time zero
[7] = artificial plasma (BZ273) without PIC, 193 pg/mL, % of nominal concentration
[8] = artificial plasma (BZ273) without PIC, 7752 pg/mL, % of nominal concentration
[9] = extracted samples from artificial plasma with 1% PIC, 193 pg/mL, % of concentration at time zero (=100%)
[10] = extracted samples from artificial plasma without PIC, 193 pg/mL, % of nominal concentration (=100%)
[11] = extracted samples from artificial plasma without PIC, 7752 pg/mL, % of nominal concentration (=100%)

With detemir the “24 h, change (%)” value [1, 5] was 115.2%, the “24 h, change (%)” value [1, 6] was 375.0% and the “24 h, change (%)” value [1, 7] was 253.5%. For the same substance, the “24 h, change (%)” value [1, 8] was 168.5%, the “48 h, change (%)” value [1, 5] was 140.6% and the “48 h, change (%)” value [1, 6] was 344.2%. For the same substance, the “48 h, change (%)” value [1, 7] was 349.6%, the “48 h, change (%)” value [1, 8] was 195.4% and the “72 h, change (%)” value [1, 5] was 116.7%. For the same substance, the “72 h, change (%)” value [1, 6] was 285.9%, the “72 h, change (%)” value [1, 7] was 243.7% and the “72 h, change (%)” value [1, 8] was 161.5%. The “24 h AS, change (%)” value [2, 9] was “<LLOQ”, the “24 h AS, change (%)” value ([2]; extracted samples from artificial plasma with 1% PIC, 7752 pg/mL, % of concentration at time zero (=100%)) was 66.0% and the “24 h AS, change (%)” value [2, 10] was 98.4%. The “24 h AS, change (%)” value [2, 11] was 93.7%, the “1 week, change (%)” value [3, 5] was “<LLOQ” and the “1 week, change (%)” value [3, 6] was 139.1%. For the same substance, the “1 week, change (%)” value [3, 7] was 64.2%, the “1 week, change (%)” value [3, 8] was 63.2% and the “2 weeks, change (%)” value [3, 5] was “<LLOQ”. The “2 weeks, change (%)” value [3, 6] was 173.5%, the “2 weeks, change (%)” value [3, 7] was 50.5% and the “2 weeks, change (%)” value [3, 8] was 54.7%. For the same substance, the “3 weeks, change (%)” value [3, 5] was “<LLOQ”, the “3 weeks, change (%)” value ([3]; artificial plasma (BZ273) with 1% PIC, 193 pg/mL, % of concentration at time zero, listed as Insulin detemir) was “< LLOQ” and the “3 weeks, change (%)” value [3, 6] was 154.5%. The “3 weeks, change (%)” value [3, 7] was 34.1%, the “3 weeks, change (%)” value [3, 8] was 49.4% and the “1 week, change (%)” value [4, 5] was “<LLOQ”. For the same substance, the “1 week, change (%)” value [4, 6] was 71.2%, the “1 week, change (%)” value [4, 7] was “<LLOQ” and the “1 week, change (%)” value [4, 8] was 27.0%. The “2 weeks, change (%)” value [4, 5] was “<LLOQ”, the “2 weeks, change (%)” value [4, 6] was 71.8% and the “2 weeks, change (%)” value [4, 7] was “<LLOQ”. For the same substance, the “2 weeks, change (%)” value [4, 8] was 24.8%, the “3 weeks, change (%)” value [4, 5] was “<LLOQ” and the “3 weeks, change (%)” value [4, 6] was 62.2%. The “3 weeks, change (%)” value [4, 7] was “<LLOQ” and the “3 weeks, change (%)” value [4, 8] was 21.9%.

With glulisine the “24 h, change (%)” value [1, 5] was 79.0%, the “24 h, change (%)” value [1, 6] was 93.1% and the “24 h, change (%)” value [1, 7] was 99.0%. The “24 h, change (%)” value [1, 8] was 92.3%, the “48 h, change (%)” value [1, 5] was 106.9% and the “48 h, change (%)” value [1, 6] was 119.5%. The “48 h, change (%)” value [1, 8] was 95.2%, the “72 h, change (%)” value [1, 5] was 92.4% and the “72 h, change (%)” value [1, 6] was 95.0%. The “72 h, change (%)” value [1, 7] was 106.5%, the “72 h, change (%)” value [1, 8] was 81.1% and the “24 h AS, change (%)” value [2, 9] was 93.2%. For the same substance, the “24 h AS, change (%)” value [2, 10] was 97.6%, the “24 h AS, change (%)” value [2, 11] was 82.2% and the “1 week, change (%)” value [3, 6] was 88.1%. For the same substance, the “1 week, change (%)” value [3, 7] was 103.5%, the “1 week, change (%)” value [3, 8] was 84.5% and the “2 weeks, change (%)” value [3, 6] was 117.9%. For the same substance, the “2 weeks, change (%)” value [3, 7] was 102.7%, the “2 weeks, change (%)” value [3, 8] was 83.7% and the “3 weeks, change (%)” value [3, 5] was 79.1%. For the same substance, the “3 weeks, change (%)” value [3, 6] was 95.2%, the “3 weeks, change (%)” value [3, 7] was 98.8% and the “3 weeks, change (%)” value [3, 8] was 75.6%. The “1 week, change (%)” value [4, 5] was 51.7%, the “1 week, change (%)” value [4, 6] was 55.6% and the “1 week, change (%)” value [4, 7] was 99.7%. For the same substance, the “1 week, change (%)” value [4, 8] was 86.2%, the “2 weeks, change (%)” value [4, 5] was 36.7% and the “2 weeks, change (%)” value [4, 6] was 143.0%. For the same substance, the “2 weeks, change (%)” value [4, 8] was 84.0%, the “3 weeks, change (%)” value [4, 5] was 29.2% and the “3 weeks, change (%)” value [4, 6] was 31.5%. The “3 weeks, change (%)” value [4, 7] was 84.8% and the “3 weeks, change (%)” value [4, 8] was 79.8%.
